Test results from paper PMC6219552, “β-Glucuronidases of opportunistic bacteria are the major contributors to xenobiotic-induced toxicity in the gut” (Scientific Reports, 2018).

B1: Bacteroides fragilis β-D-glucuronidase (enzyme)
chain: RQDILLNNNWNFRFSHQVQGDTRRVDLPHTWNAQDALAGKIDYKRGIGNYEKALYIRPEWKGKRLFLRFDGVNSIADVFINRKHIGEHRGGYGAFIFEITDLVKYGEKNSVLVRANNGEQLDIMPLVGDFNFYGGIYRDVHLLITDETCISPLDYASPGVYLVQEVVSPQEAKVCAKVNLSNRAADGTAELQVLVTDGTKVICKESRNVSLKQGADILEQLPLLIQKPRLWNGCEDPFMYQVSISLHKDGKQIDSVTQPLGLRYYHTDPDKGFFLNGKHLPLHGVCRHQDRAEVGNALRPQHHEEDVALMREMGVNAIRLAHYPQATYMYDLMDKHGIVTWAEIPFVGPGGYADKGFVDQASFRENGKQQLIELIRQHYNHPSICFWGLFNELKEVGDNPVEYVKELNALAKQEDPTRPTTSASNQDGNLNFITENIAWNRYDGWYGSTPKTLATFLDRTHKKHPELRIGISEYGAGASIYHQQDSLKQPSASGWWHPENWQTYYHMENWKIIAERPFVWGTFVWNMFDFGAAHRTEGDRPGINDKGLVTFDRKVRKDAFYFYKANWNKQEPMIYLAEKRCRLRYQPEQTFMAFTTAPEAELFVNGVSCGKQKADTYSTVVWKNVKLTSGENIIRVTTPGKKPLTDEVTVEYKEDR
notes: β-D-glucuronidase (GUS) of Bacteroides fragilis, codon-optimized gene bought from GenScript, in pET15b; apo structure PDB 3CMG named as search model; Crystallised and soaked with UIFG; Its PDB code is one of 5Z18, 5Z19, 5Z1A, 5Z1B; also called BfGUS
B2: Ruminococcus gnavus β-D-glucuronidase (enzyme)
chain: MLEYSELYPIQNEYRMMQSLDGMWKFQFDPEEIGKKSGWENGLPAPVSMPVPSSFADFFTDHKERDYCGDFWYETEFYLPAEWRNKKIWLRFGSITHRGTVYCNGMEITSHEGGFLPVLADISTVAKPGQVNQVVVKINNELNETSLPCGATKILNNGRKLAKPYFDFFNYSGLQRSVWVIALPEESVKDYSVDYELCGTDALVKYEVVTTGEHPVIVRLLDAEGELVAETEGKEGILQVANARLWEVRNAYLYQIVILITDGNGVLDEYREKIGIRTVRIEGTKILLNDRPVYLKGFGKHEDFPILGRGFHWGIVKRDFECLKWTNANCFRTSHYPYAEEWYQFADEEGFLIIDEVPAVGMMRSTRNFVAAGSGNYTYFFEALTVPELLKSHIADTEEMITRDKNHPSVIAWSLFNEPETITDYAYEYFKEVFAAAETYDFQSRPMTGAFEKNSKPELCKCYPLCDFICLNRYYGWYISGGPEIEEAEELFRDEMDRWKAKELNVPFVFTEFGTDTMAGLHKLPSIMWSEEYQKEYLEMNFRVFDSYEFVQGELAWNFADFQTTEGIMRVDGNHKGVFTRDRQPKAAAVVFKDRWEKKNELF

Assays:
[1] = target: Bifidobacterium dentium β-D-glucuronidase, catalytically inactive mutant E479A (Bifidobacterium dentium); assay: crystal structure; crystals of the purified GUS alone, soaked with UIFG (RgGUS, BfGUS) or with compound 10 (BifdGUS E479A); oligomer as seen in the crystal structures
[2] = target: the molecule itself; assay: as above

Molecule | stoichiometry N [1] | stoichiometry N [2]
Bifidobacterium dentium β-D-glucuronidase, catalytically inactive mutant E479A (enzyme) | 4 | –
B1 | – | 4
B2 | – | 4
